US8088892B2, “Inhibitors of proteins from the Rho-GEF family” (Centre National de la Recherche Scientifique (C.N.R.S.), priority 2002, dated 2012)

Key:
TrioGEFD1 = molecular target: T1, TrioGEFD1 (Homo sapiens, UniProt O75962); test: In vitro GEF assay on RhoG; format: biochemical; parameters: key to in vitro GEF assay (inhibition): +++^2 and +^2 represent respectively a full and a partial (see FIG. 3) inhibitory effect; +++^2 and +^2 represent respectively a full and a partial (see FIG. 3) inhibitory effect; −−^2 represents a lack of inhibitory effect; details: for Effect on TrioGEFD1 exchange activity on RhoG: 20-fold molar excess, TrioGEFD1 0.1 μM, RhoG 0.3 μM
T1 construct: TrioGEFD1 (a.a. 1232-1629, 0.1 μM); made in house
Experimental: To test the specificity of TRIAPα inhibition in vitro, exchange experiments were performed either on RhoA with different RhoA-specific GEFs: Trio GEFD2 (0.4 μM), Kalirin GEFD2 (KalGEFD2, 1.7 μM), p63RhoGEF (Souchet et al., 2002) (0.4 μM) and Lbc (amino acids 172-598; Zheng et al., 1995) (0.4 μM), or on RhoG, with the RhoG-specific GEF domain of Trio (TrioGEFD1, 0.1 μM). Exchange assays were performed with the recombinant GEFs as described in FIG. 2A. Different concentrations of RhoGEFs were used to yield a similar nucleotide exchange efficiency. For each exchange factor, three independent experiments were done in absence (black bar) or in the presence (grey bar) of a 20-fold molar excess of TRIAPα.
(§1) An in vitro guanine nucleotide exchange (GEF) assay was used to test whether the TrioGEFD2-binding aptamers could inhibit the catalytic activity of TrioGEFD2 towards RhoA. For this purpose, the aptamers TRIAPα, TRIAPβ and TRIAPγ (including the Trx gene) were excised from pEG202 as EcoRI/NotI fragments and cloned into pGEX4T1 EcoRI/NotI. The aptamers were then expressed and purified from bacteria as GST fusion proteins, using standard procedures (Smith and Johnson, 1988). GTPase-GST fusion proteins were prepared, loaded with [^3H]GDP and the guanine nucleotide release assays were performed as described (Debant et al., 1996), using recombinant GST-TrioGEFD2 (a.a. 1848-2298), TrioDH2 (a.a. 1848-2096). For each point, 0.3 μM GTPase was mixed with or without 0.4 μM GEF in presence of non-labeled GTP, and the reaction mix was filtered after 0 min and 15 mm reaction at 25° C. The catalytic activity of TrioGEFD2 was thus measured by the decrease of the GTPase-associated radioactivity. The results are expressed as the ratio “exchange after 15 min over exchange after 0 min” (% bound [^3H]GDP-RhoA). To measure the effect of the aptamers on the exchange activity, a 20-fold molar excess of GST-TRIAPs was pre-incubated with GEFD2 (or GEFD1) for 30 min on ice before the exchange assay was carried out. For each experiment, data were obtained in triplicate. […]

Dbl = molecular target: T2, Dbl (Homo sapiens, UniProt P10911); test: In vitro GEF assay on RhoA; format: biochemical; parameters: key to in vitro GEF assay (inhibition): +++^2 and +^2 represent respectively a full and a partial (see FIG. 3) inhibitory effect; +++^2 and +^2 represent respectively a full and a partial (see FIG. 3) inhibitory effect; −−^2 represents a lack of inhibitory effect
T2 construct: made in house
T2 sequence (P10911 495-826): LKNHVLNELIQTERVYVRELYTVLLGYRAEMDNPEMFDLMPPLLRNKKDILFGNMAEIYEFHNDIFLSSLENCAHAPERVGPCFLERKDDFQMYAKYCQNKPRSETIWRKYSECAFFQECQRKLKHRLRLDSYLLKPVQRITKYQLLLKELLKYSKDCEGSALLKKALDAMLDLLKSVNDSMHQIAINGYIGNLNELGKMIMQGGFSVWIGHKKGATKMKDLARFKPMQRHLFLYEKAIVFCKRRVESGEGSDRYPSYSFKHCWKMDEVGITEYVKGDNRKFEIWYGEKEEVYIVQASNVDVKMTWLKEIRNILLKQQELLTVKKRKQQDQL
Text: as §1

Effect on TrioGEFD1 exchange activity on RhoG (TrioGEFD1): has no effect
Effect on TrioGEFD1 exchange activity on RhoG (TrioGEFD1; listed as GST-TRIAPα): did not block
in vitro GEF assay (inhibition) (TrioGEFD1; RhoGEF TrioDH1PH1): −−^2
in vitro GEF assay (inhibition) (Dbl; RhoGEF Dbl): −−^2
Effect on Dbl exchange activity (Dbl; data not shown): not affected
B1: TRIAPα: aptamer of 154 amino acids: variable region of 42 amino acids inserted into the thioredoxin protein; tested as GST fusion (protein)
chain: MSDKIIHLTDDSFDTDVLKADGAILVDFWAEWCGPAREGADGAICGYNLATLVMLGPSERVFCPLCEPCSSDIYELMGPCKMIAPILDEIADEYQGKLTVAKLNIDQNPGTAPKYGIRGIPTLLLFKNGEVASATKVGALSKGQLKEFLDANLA
